{"source": "patent US20230002478A1", "about": "(published 2023)", "binders": {"B1": {"name": "antibody 339-031 (Fc fusion)", "chain": "EVQLVESGGGLVQPGGSLRLSCAASGSTFSINAMGWFRQAPGKEREFVAGITSSGGYTNYADSVKGRFTISADNSKNTAYLQMNSLKPEDTAVYYCAADGVPEYSDYASGPVWGQGTLVTVSS"}, "B2": {"name": "antibody 202-03 (Fc fusion)", "chain": "EVQLVESGGGLVQPGGSLRLSCAASGFTFSPSWMGWFRQAPGKEREFVATINEYGGRNYADSVKGRFTISADNSKNTAYLQMNSLKPEDTAVYYCARVDRDFDYWGQGTLVTVSS"}}, "key": {"[1]": {"biological_target": "SARS-CoV-2 S Trimer (SARS-CoV-2, UniProt P0DTC2 16-1213)", "assay": "SPR"}, "[2]": {"biological_target": "SARS-CoV-2 S1 (SARS-CoV-2, UniProt P0DTC2 16-685)", "assay": "SPR"}}}
{"binder": "B1", "values": [{"measurement": "Kd", "setting": "[1]", "value": "< 0.014", "unit": "nM"}, {"measurement": "Kd", "setting": "[2]", "value": 0.006, "unit": "nM"}]}
{"binder": "B2", "values": [{"measurement": "Kd", "setting": "[1]", "value": 0.299, "unit": "nM"}, {"measurement": "Kd", "setting": "[2]", "value": 0.011, "unit": "nM"}]}
